# US5693476
# Columns and labels:
# [1] = target: GST-syntaxin 1A deletion mutant Syn 1A17 (amino acids 4-240) (Schistosoma japonicum; rat); assay: 20S complex on GST-Syn 1A17 beads, ATP and Mg++, Western blot densitometry
# [2] = target: GST-syntaxin 1A H3 domain construct Syn 1A16 (amino acids 191-266) (Schistosoma japonicum; rat); assay: 20S complex on GST-Syn 1A16 beads, ATP and Mg++, Western blot densitometry
# [3] = target: GST-syntaxin 1A H3 domain construct Syn 1A16 (amino acids 191-266) (Schistosoma japonicum; rat); assay: 20S complex assembly on GST-syntaxin beads with all four proteins together, ATP, 18° C. overnight MgCl2, Western blot densitometry, FIG. 6B
# [4] = target: GST-syntaxin 1A cytoplasmic domain fusion protein (Syn 1A11, amino acids 4-266), immobilized on glutathione agarose beads (Schistosoma japonicum; rat); assay: as above
# [5] = target: GST-syntaxin 1A deletion mutant Syn 1A13 (amino acids 4-221) (Schistosoma japonicum; rat); assay: as above
# [6] = target: GST-syntaxin 1A deletion mutant Syn 1A17 (amino acids 4-240) (Schistosoma japonicum; rat); assay: as above
# [7] = target: GST-syntaxin 1A deletion mutant Syn 1A6 (amino acids 4-190) (Schistosoma japonicum; rat); assay: as above
# [8] = target: GST-syntaxin 1A cytoplasmic domain fusion protein (Syn 1A11, amino acids 4-266), immobilized on glutathione agarose beads (Schistosoma japonicum; rat); assay: 20S complex assembly on GST-syntaxin beads with SNAP-25, VAMP, α-SNAP and NSF added together, ATP, 25° C., Western blot densitometry, FIG. 6A
# [9] = target: GST-syntaxin 1A H3 domain construct Syn 1A16 (amino acids 191-266) (Schistosoma japonicum; rat); assay: 20S complex assembly on GST-syntaxin beads with all four proteins together, ATPγS, 18° C. overnight MgCl2, Western blot densitometry, FIG. 6B
# [10] = target: GST-syntaxin 1A cytoplasmic domain fusion protein (Syn 1A11, amino acids 4-266), immobilized on glutathione agarose beads (Schistosoma japonicum; rat); assay: as above
# [11] = target: GST-syntaxin 1A deletion mutant Syn 1A13 (amino acids 4-221) (Schistosoma japonicum; rat); assay: as above
# [12] = target: GST-syntaxin 1A deletion mutant Syn 1A17 (amino acids 4-240) (Schistosoma japonicum; rat); assay: as above
# [13] = target: GST-syntaxin 1A deletion mutant Syn 1A6 (amino acids 4-190) (Schistosoma japonicum; rat); assay: as above
# [14] = target: GST-syntaxin 1A cytoplasmic domain fusion protein (Syn 1A11, amino acids 4-266), immobilized on glutathione agarose beads (Schistosoma japonicum; rat); assay: 20S complex assembly on GST-syntaxin beads with SNAP-25, VAMP, α-SNAP and NSF added together, ATPγS, 25° C., Western blot densitometry, FIG. 6A
# [15] = target: GST-syntaxin 1A (Syn1A11) point mutant 12 (four point mutations) (Schistosoma japonicum; rat); assay: GST-syntaxin point mutant on glutathione beads, soluble ligand, Western blot densitometry, FIG. 5B
# [16] = target: GST-syntaxin 1A (Syn1A11) point mutant 13 (four point mutations) (Schistosoma japonicum; rat); assay: as above
# [17] = target: GST-syntaxin 1A (Syn1A11) point mutant 34 (Schistosoma japonicum; rat); assay: as above
# [18] = target: GST-syntaxin 1A (Syn1A11) point mutant 45 (Schistosoma japonicum; rat); assay: as above
# [19] = target: GST-syntaxin 1A (Syn1A11) point mutant M1: R198A, I202A (Schistosoma japonicum; rat); assay: as above
# [20] = target: GST-syntaxin 1A (Syn1A11) point mutant M2: L205A, I209A (Schistosoma japonicum; rat); assay: as above
# [21] = target: GST-syntaxin 1A (Syn1A11) point mutant M3: L212A, F216A (Schistosoma japonicum; rat); assay: as above
# [22] = target: GST-syntaxin 1A (Syn1A11) point mutant M4: V223A, Q226A (Schistosoma japonicum; rat); assay: as above
# [23] = target: GST-syntaxin 1A (Syn1A11) point mutant M5: I230A, I233A (Schistosoma japonicum; rat); assay: as above
# [24] = target: GST-syntaxin 1A (Syn1A11) point mutant M6: A240V, V244A (Schistosoma japonicum; rat); assay: as above
# [25] = target: GST-syntaxin 1A cytoplasmic domain fusion protein (Syn 1A11, amino acids 4-266), immobilized on glutathione agarose beads (Schistosoma japonicum; rat); assay: GST-syntaxin 1A (wild type) on glutathione beads, soluble ligand, Western blot densitometry, FIG. 5B
# [26] = target: GST-syntaxin 1A deletion mutant Syn 1A4 (amino acids 8-76) (Schistosoma japonicum; rat); assay: GST-syntaxin deletion mutant on glutathione beads, soluble ligand, Western blot densitometry; FIG. 4C row 1 from top, row label only in the figure (assigned by Table 1 order and paragraph 328)
# [27] = target: GST-syntaxin 1A deletion mutant Syn 1A5 (amino acids 4-114) (Schistosoma japonicum; rat); assay: GST-syntaxin deletion mutant on glutathione beads, soluble ligand, Western blot densitometry; FIG. 4C row 2 from top, row label only in the figure (assigned by Table 1 order and paragraph 328)
# [28] = target: GST-syntaxin 1A deletion mutant Syn 1A6 (amino acids 4-190) (Schistosoma japonicum; rat); assay: GST-syntaxin deletion mutant on glutathione beads, soluble ligand, Western blot densitometry; FIG. 4C row 3 from top, row label only in the figure (assigned by Table 1 order and paragraph 328)
# [29] = target: GST-syntaxin 1A deletion mutant Syn 1A13 (amino acids 4-221) (Schistosoma japonicum; rat); assay: GST-syntaxin deletion mutant on glutathione beads, soluble ligand, Western blot densitometry; FIG. 4C row 4 from top, row label only in the figure (assigned by Table 1 order and paragraph 328)
# [30] = target: GST-syntaxin 1A deletion mutant Syn 1A17 (amino acids 4-240) (Schistosoma japonicum; rat); assay: GST-syntaxin deletion mutant on glutathione beads, soluble ligand, Western blot densitometry; FIG. 4C row 5 from top, row label only in the figure (assigned by Table 1 order and paragraph 328)
# [31] = target: VAMP 2 cytoplasmic domain (amino acids 1-94), recombinant, immobilized on the SPR flow cell (rat); assay: SPR (BIAcore), VAMP 2 cytoplasmic domain immobilized
# [32] = target: VAMP 2 cytoplasmic domain (amino acids 1-94), recombinant, immobilized on the SPR flow cell (rat); assay: SPR (BIAcore), VAMP 2 cytoplasmic domain immobilized; KD = kd/ka
# Chain of His-tagged NSF (N-ethylmaleimide-sensitive factor), soluble recombinant (P18708 whole entry): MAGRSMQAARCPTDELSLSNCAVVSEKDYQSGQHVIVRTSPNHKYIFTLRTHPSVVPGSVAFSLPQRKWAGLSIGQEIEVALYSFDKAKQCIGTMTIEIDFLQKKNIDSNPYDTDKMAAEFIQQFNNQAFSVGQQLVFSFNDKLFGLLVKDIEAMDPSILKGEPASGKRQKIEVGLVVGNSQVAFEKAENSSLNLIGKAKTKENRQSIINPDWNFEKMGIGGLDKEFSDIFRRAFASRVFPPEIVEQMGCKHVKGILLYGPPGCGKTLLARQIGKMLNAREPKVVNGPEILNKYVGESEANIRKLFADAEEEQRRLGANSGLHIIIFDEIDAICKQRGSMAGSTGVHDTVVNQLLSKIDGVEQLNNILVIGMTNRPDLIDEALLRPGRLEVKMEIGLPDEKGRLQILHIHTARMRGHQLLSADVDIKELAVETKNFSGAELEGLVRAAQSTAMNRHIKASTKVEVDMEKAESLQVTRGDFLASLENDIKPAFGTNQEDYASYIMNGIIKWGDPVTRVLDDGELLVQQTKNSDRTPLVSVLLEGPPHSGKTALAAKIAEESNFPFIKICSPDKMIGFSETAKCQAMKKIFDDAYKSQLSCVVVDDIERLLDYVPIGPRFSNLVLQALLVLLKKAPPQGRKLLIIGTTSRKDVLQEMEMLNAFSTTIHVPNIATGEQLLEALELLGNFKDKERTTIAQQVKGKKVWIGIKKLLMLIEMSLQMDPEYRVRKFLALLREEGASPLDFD
# Chain of VAMP 2 cytoplasmic domain (amino acids 1-94), recombinant, immobilized on the SPR flow cell (rat) (chain, as listed by the source): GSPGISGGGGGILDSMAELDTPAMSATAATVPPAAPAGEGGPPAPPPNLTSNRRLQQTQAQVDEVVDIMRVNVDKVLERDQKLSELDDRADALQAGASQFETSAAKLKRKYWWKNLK
# Chain of syntaxin 1A carboxyl-terminal domain (amino acids 194-267), soluble recombinant (chain): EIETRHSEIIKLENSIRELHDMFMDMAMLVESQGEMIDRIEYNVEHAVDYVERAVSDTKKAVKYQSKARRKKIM
substance,measurement,setting,value
"His-tagged NSF (N-ethylmaleimide-sensitive factor), soluble recombinant (from UniProt P18708) (enzyme)",percent dissociated in the presence of ATP and Mg++,[1],30%
same,percent dissociated in the presence of ATP and Mg++,[2],11%
same,densitometry pixel value,[3],357 pixel value
same,densitometry pixel value,[4],92 pixel value
same,densitometry pixel value,[5],12 pixel value
same,densitometry pixel value,[6],198 pixel value
same,densitometry pixel value,[7],0 pixel value
same,densitometry pixel value,[8],362 pixel value
same,densitometry pixel value,[9],319 pixel value
same,densitometry pixel value,[10],163 pixel value
same,densitometry pixel value,[11],46 pixel value
same,densitometry pixel value,[12],295 pixel value
same,densitometry pixel value,[13],0 pixel value
same,densitometry pixel value,[14],1590 pixel value
"n-sec1, soluble recombinant (from UniProt P61765)",densitometry pixel value,[15],618 pixel value
same,densitometry pixel value,[16],79 pixel value
same,densitometry pixel value,[17],353 pixel value
same,densitometry pixel value,[18],7 pixel value
same,densitometry pixel value,[19],522 pixel value
same,densitometry pixel value,[20],779 pixel value
same,densitometry pixel value,[21],554 pixel value
same,densitometry pixel value,[22],623 pixel value
same,densitometry pixel value,[23],15 pixel value
same,densitometry pixel value,[24],687 pixel value
same,densitometry pixel value,[25],1070 pixel value
same,densitometry pixel value,[26],0 pixel value
same,densitometry pixel value,[27],0 pixel value
same,densitometry pixel value,[28],0 pixel value
same,densitometry pixel value,[29],84 pixel value
same,densitometry pixel value,[30],2450 pixel value
"syntaxin 1A carboxyl-terminal domain (amino acids 194-267), soluble recombinant",koff,[31],0.0022 s⁻¹
same,kon,[31],470 M⁻¹ s⁻¹
same,Kd,[32],4.7 µM
